The values that follow come from patent publication US20230192799A1 (BIOMARIN PHARMACEUTICAL, published 2023).

Bridge positions count the residues as written; N and C are the ends. Ends that are not written are not given here.

The assay has as its target natriuretic peptide receptor-B (NPR-B) on the cells of the cGMP stimulation assay of Example 2. Briefly: cell-based or functional assay.
Regarding Ac-PGQEHPQARRYRGAQRRGLSRGCFGLKLDRIGSMSGLGC-NH2 (disulfide 23-39 (inferred)) [CNP-9], the “EC50, T0 (cGMP stimulation assay)” value turned out to be 0.9 nM. In the case of Ac-PGQEHPQARRYRGAQRRGLSRGCFGLKLDRIGSMSGLGC-OH (disulfide 23-39 (inferred)) [CNP-8] it was 0.2 nM; in that of Ac-PGQEHPNARKYKGANKKGLSKGCFGLKLDRIGSMSGLGC-NH2 (disulfide 23-39 (inferred)) [CNP-5], 3 nM; in that of PGQEHPNARKYKGANKKGLSKGCFGLKLDRIGSMSGLGC (disulfide 23-39 (inferred)) [Pro-Gly CNP-37], 1.7 nM. For the molecule Ac-PGQEHPNARRYRGANRRGLSRGCFGLKLDRIGSMSGLGC-NH2 (disulfide 23-39 (inferred)) [CNP-7], the “EC50, T0 (cGMP stimulation assay)” value turned out to be 2.1 nM. For the molecule Ac-PGQEHPNARRYRGANRRGLSRGCFGLKLDRIGSMSGLGC-OH (disulfide 23-39 (inferred)) [CNP-6], the “EC50, T0 (cGMP stimulation assay)” value came out at 0.4 nM.
